Measured values from FireProtDB (doi:10.1073/pnas.0911904107).

B1: Lipid A palmitoyltransferase PagP, P37001 (parent)
chain: MNVSKYVAIFSFVFIQLISVGKVFANADEWMTTFRENIAQTWQQPEHYDLYIPAITWHARFAYDKEKTDRYNERPWGGGFGLSRWDEKGNWHGLYAMAFKDSWNKWEPIAGYGWESTWRPLADENFHLGLGFTAGVTARDNWNYIPLPVLLPLASVGYGPVTFQMTYIPGTYNNGNVYFAWMRFQF

Variants of: B1
Conditions: Escherichia coli (strain K12), pH 8, 25 °C, Urea, CD, structure 1THQ, whole UniProt chain shown
[1] = Sodium phosphate 50 mM, reversible: Yes
[2] = sodium phosphate buffer, transition: 2, reversible: yes

Row | Variant | ddG of mutation (higher = less stable) [1] [kcal/mol] | denaturant midpoint (higher = more stable) [1] [M] | unfolding free energy [1] [kcal/mol] | ddG of mutation (higher = less stable) [2] [kcal/mol] | denaturant midpoint (higher = more stable) [2] [M] | unfolding free energy [2] [kcal/mol] | denaturant m value [1] [kcal/mol/M]
1 | MNVSKYVAIFSFVFIQLISVGKVFANADEWMTTFRENIAQTWQQPEHYDLYIPAITWHARFAYDKEKTDRYNERPWGGGFGLSRWDEKGNWHGLYAMAFKDSWNKWEPIAGYGWASTWRPLADENFHLGLGFTAGVTARDNWNYIPLPVLLPLASVGYGPVTFQMTYIPGTYNNGNVYFAWMRFQF [E115A] | 0.66 | 8.37 | 13.7 | 6.01 | 8.37 | 8.37 | –
2 | MNVSKYVAIFSFVFIQLISVGKVFANADEWMTTFRENIAQTWQQPEHYDLYIPAITWHARFAYDKEKTDRYNERPWGGGFGLSRWDEKGNWHGLYAMAFKDSWNKWEPIAGYGWESTWRPLADENFHLGLGFTAGVTARDNWNYIPLPVLLPLASVGYGPVTFQMTYIPGTYNNGNVYFAWARFQF [M182A] | 0.77 | 8.3 | 13.6 | – | – | – | –
3 | MNVSKYVAIFSFVFIQLISVGKVFANADEWMTTFRENIAQTWQQPEHYDLYIPAITWHARFAYDKEKTDRYNERPWGGGFGLSRWDEKGNWHGLYAMAFKDSWNKWEPIAGYGWESTWRPLADENFHLGLGFTAGVTARDNWNYIPLPVLLPLASVGYGPVTFQMTYIPGTYNNGNVAFAWMRFQF [Y178A] | 0.55 | 8.43 | 13.8 | 5.95 | 8.43 | 8.43 | –
4 | MNVSKYVAIFSFVFIQLISVGKVFANADEWMTTFRENIAQTWQQPEHYDLYIPAITWHARFAYDKEKTDRYNERPWGGGFGLSRWDEKGNWHGLYAMAFKDSWNKWEPIAGYGWESTWRPLADENFHLGLGFTAGVTARDNWNYIPLPVLLPLASVGYGPVAFQMTYIPGTYNNGNVYFAWMRFQF [T162A] | 0.51 | 8.46 | 13.9 | 5.92 | 8.46 | 8.46 | –
5 | MNVSKYVAIFSFVFIQLISVGKVFANADEWMTTFRENIAQTAQQPEHYDLYIPAITWHARFAYDKEKTDRYNERPWGGGFGLSRWDEKGNWHGLYAMAFKDSWNKWEPIAGYGWESTWRPLADENFHLGLGFTAGVTARDNWNYIPLPVLLPLASVGYGPVTFQMTYIPGTYNNGNVYFAWMRFQF [W42A] | – | – | – | 6.21 | 8.17 | 8.17 | –
6 | MNVSKYVAIFSFVFIQLISVGKVFANADEWMTTFRENIAQTWQQPEHYDLYIPAITWHARFAYDKEKTDRYNERPWGGGFGLSRWDEKGNWHGLYAMAFKDSWNKWEPIAGYGWESTWRPLADENFHLGLGFTAGVTARDNWNYIPLPVLLPLASVGYGPVTFQMTYIPGTYNNGNVYFAWMRFAF [Q185A] | -0.18 | 8.88 | 14.6 | 5.5 | 8.88 | 8.88 | 1.64
7 | MNVSKYVAIFSFVFIQLISVGKVFANADEWMTTFRENIAQTWQQPEHYDLYIPAITWHARFAYDKEKTDRYNERPWGGGFGLSRWDEKGNWHGLYAMAFKDSWNKWEPIAGYGWESTWRPLADENFHLGLGFAAGVTARDNWNYIPLPVLLPLASVGYGPVTFQMTYIPGTYNNGNVYFAWMRFQF [T133A] | 0.4 | 8.52 | 14 | 5.86 | 8.52 | 8.52 | –
8 | MNVSKYVAIFSFVFIQLISVGKVFANADEWMTTFRENIAQTWQQPEHYDLYIPAITWHARFAYDKEKTDRYNERPWGGGFGLSRWDEKGNWHGLYAMAFKDSWNKWEPIAGYGWESTWRPLADENFHLGLGFTAGVTARDNWNYIPLPVLLPLAAVGYGPVTFQMTYIPGTYNNGNVYFAWMRFQF [S155A] | 1.27 | 8 | 13.1 | 6.38 | 8 | 8 | –
9 | MNVSKYVAIFSFVFIQLISVGKVFANADEWMTTFRENIAQTWQQPEHYDLYIPAITWHARFAYDKEKTDRYNERPWGGGFGLSRWDEKGNWHGLYAMAFKDSWNKWEPIAGYGWESTWAPLADENFHLGLGFTAGVTARDNWNYIPLPVLLPLASVGYGPVTFQMTYIPGTYNNGNVYFAWMRFQF [R119A] | 1.53 | 7.84 | 12.8 | 6.54 | 7.84 | 7.84 | –
10 | MNVSKYVAIFSFVFIQLISVGKVFANADEWMTTFRENIAQTWQQPEHYDLYIPAITWHARFAYDKEKTDRYNERPWGGGFGLSRWDEKGNWHGLYAMAFKDSWNKWEPIAGGGWESTWRPLADENFHLGLGFTAGVTARDNWNYIPLPVLLPLASVGYGPVTFQMTYIPGTYNNGNVYFAWMRFQF [Y112G] | – | – | – | 6.14 | 8.24 | 8.24 | –
11 | MNVSKYVAIFSFVFIQLISVGKVFANADEWMTTFRENIAQTWQQPEHYDLYIPAITWHARFAYDKEKTDRYNERPWGGGFGLSRWDEKGNWHGLYAMAFKDSWNKWEPIAGYGWESTWRPLADENFHLGAGFTAGVTARDNWNYIPLPVLLPLASVGYGPVTFQMTYIPGTYNNGNVYFAWMRFQF [L130A] | 0.76 | 8.3 | 13.6 | 6.08 | 8.3 | 8.3 | –
12 | MNVSKYVAIFSFVFIQLISVGKVFANADEWMTTFRENIAQTWQQPEHYDLYIPAITWHARFAYDKEKTDRYNERPWGGGFGLSRWDEKGNWHGLYAMAFKDSWNKWEPIAGYGWESTWRPLADENFHLGLGFTAGVTARDNWNYIPLPVLLPLASVGYGPVTFAMTYIPGTYNNGNVYFAWMRFQF [Q164A] | 0.97 | 8.18 | 13.4 | 6.2 | 8.18 | 8.18 | –
